The target in assay [1] is T1, corticotropin-releasing hormone (CRH) peptide (human and mouse, not fully specified).
T1 peptide: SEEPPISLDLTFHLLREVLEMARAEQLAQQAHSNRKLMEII
Kind of assay: cell-based or functional assay.

Assay [2] has as its target T2, human UCN1 peptide (human, UniProt P55089 83-122).
T2 peptide (looked up): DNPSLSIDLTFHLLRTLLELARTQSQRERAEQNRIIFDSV
Kind of assay: cell-based or functional assay.

Assay [3] deals with T3, biotinylated CRH (human and mouse, not fully specified; biotinylated, position not stated).
T3 construct: also called Biotin-CRH; biotin-labeled CRH
T3 peptide: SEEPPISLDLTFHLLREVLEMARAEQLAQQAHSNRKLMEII
The assay is described as follows: Octet BLI, biotinylated CRH on SA sensor.

The target in assay [4] is T4, CRH (NT Biotin) (human and mouse, not fully specified; biotin at the N-terminus).
T4 peptide: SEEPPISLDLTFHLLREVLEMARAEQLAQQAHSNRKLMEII
The assay is described as follows: ELISA, biotin peptide on streptavidin plate. Here is the method:
(§1) Streptavidin (Thermo, Cat: 21125) was diluted in PBS to a concentration of 2 μg/ml. 100 μl of diluted streptavidin was added per well to ELISA microplates, and the plates were incubated overnight at 4° C. […] 100 μL of 3,3′,5,5′-tetramethylbenzidine (TMB) substrate (Biopanda, Cat: TMB-S-003) was added, and the plates were incubated at room temperature for 15 minutes. 100 μL of ELISA stopping solution (Solarbio, Cat #: C1058) was added to terminate the reaction, and the optical density at 450 nm (OD450 nm) was determined by an ELISA plate reader (Molecular Devices, Spectra max 384 plus).

The target in assay [5] is T5, hUCN1 (NT Biotin) (human, UniProt P55089 83-122, biotin at the N-terminus).
T5 construct: also called human UCN1 (NT biotin)
T5 peptide (looked up): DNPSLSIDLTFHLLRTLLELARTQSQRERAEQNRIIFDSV
Kind of assay: ELISA, biotin peptide on streptavidin plate. The protocol:
as §1

Assay [6] concerns the target T6, hUCN1 (CT Biotin) (human, UniProt P55089 83-122, biotin at the C-terminus).
T6 construct: also called human UCN1 (CT biotin)
T6 peptide (looked up): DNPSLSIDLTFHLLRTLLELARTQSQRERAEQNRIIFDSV
Kind of assay: ELISA, biotin peptide on streptavidin plate. The protocol: as §1

In assay [7] the target is T7, human UCN2 peptide (human, UniProt Q96RP3 72-109, limits assumed, not fully specified; biotin at N- or C-terminus in the ELISA).
T7 construct: also called hUCN2; hUCN2 (NT Biotin)
T7 peptide (looked up): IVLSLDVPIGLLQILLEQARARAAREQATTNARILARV
Kind of assay: ELISA on streptavidin-captured hUCN2 (NT biotin) and hUCN2 (CT biotin), mAb at 100 nM and 10 nM, OD450. The protocol: (§2) Streptavidin (Thermo, Cat: 21125) was diluted in PBS with a concentration of 2 μg/mL. 100 μL of diluted streptavidin was added per well to ELISA microplates, and the plates were incubated overnight at 4° C. Plates were blocked with ELISA blocking solution (containing 2% w/v BSA, 0.05% (v/v) Tween-20, pH 7.4 PBS buffer) at 37° C. for 1 hour, and then incubated with either 1 μg/mL hUCN1 (NT Biotin), hUCN1 (CT Biotin), hUCN2 (NT Biotin), hUCN2 (CT Biotin), hUCN3 (NT Biotin), or hUCN3 (CT Biotin) for 1 hour at 37° C. […] 100 μl of TMB Substrate (Biopanda, Cat: TMB-S-003) was added, and the plates were incubated at room temperature for 15 minutes. 100 μL of ELISA stopping solution (Solarbio, Cat #: C1058) was then added to terminate the reaction, and the OD450 nm was determined by an ELISA plate reader (Molecular Devices, Spectra max 384 plus).

Assay [8] deals with T8, human UCN3 peptide (human, UniProt Q969E3 120-157, not fully specified; biotin at N- or C-terminus in the ELISA).
T8 construct: also called hUCN3; hUCN3 (NT Biotin)
T8 peptide (looked up): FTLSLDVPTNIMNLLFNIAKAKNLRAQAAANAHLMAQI
The assay is described as follows: ELISA on streptavidin-captured hUCN3 (NT biotin) and hUCN3 (CT biotin), mAb at 100 nM and 10 nM, OD450. Here is the method: as §2

The target of assay [9] is T9, CRH (CT Biotin) (human and mouse, C-terminal K-Biotin).
T9 construct: also called Peptide 4 (CRH-Biotin)
T9 peptide: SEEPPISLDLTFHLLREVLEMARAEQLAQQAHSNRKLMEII
Kind of assay: ELISA, biotin peptide on streptavidin plate. The protocol:
as §1

For assay [10], the target named is T10, N-Terminal CRH (human and mouse, C-terminal K-Biotin).
T10 construct: also called N-Ter-CRH (CT-Bion)
T10 peptide: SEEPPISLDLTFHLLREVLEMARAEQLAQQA
The assay is described as follows: ELISA, biotin peptide on streptavidin plate. The protocol:
as §1

For assay [11], the target named is T7, human UCN2 peptide. The assay is described as follows: ELISA on streptavidin-captured hUCN2 (NT biotin) and hUCN2 (CT biotin), mAb at 100 nM and 10 nM; axis labelled RLU, scale 0-4. The protocol:
as §2

The values below come from patent publication US20260042834A1 (HBM ALPHA THERAPEUTICS, published 2026).

“And” between values parts separate entries of the source, which are not always exact repeats. Equal values may be shown once.

B1: PR303394 (antibody, human IgG1, kappa, V domains shown)
VH: EVQLQQSGPELVKPGVSMKISCKASGYSFTDSTMNWVKQSHGKNLEWIGLIHPDNGGTIYNQKFKGKATLTVHKSSSTAYMELLSLTSEDSAVYYCANGFAYWGQGTLVTVSA
VL: DVVMTQTPLSLPVSLGDQASISCRSSQSLLHSNGNTYLHWYLQKPGQSPELLIYKVSNRFSGVPDRFSGSGSGTDFTLKISRVEAEDLGVYFCSQSTHVPLTFGAGTKLELKR
notes: also called analog of CTRND05
With B1, the “CHO-CRE-hCRHR1 0.5 nM CRH IC50” value in assay [1] is 2.77 nM. For the same molecule, the “CHO-CRE-hCRHR1 1 nM hUCH1 IC50” value in [2] was found to be 42.5 nM. Further, the Kd in assay [3] was found to be 0.0136 nM. Further, the EC50 was found to be 0.028 nM in assay [4], 0.018 nM in [5] and 0.022 nM in [6]. In addition, the binding result in assay [7] and in [8] was “no binding (tested: 100 nM)” throughout.

B2: PR005660 (antibody, human IgG1, kappa, V domains shown)
VH: EVQLVESGGVLVQPGGSLRLSCAASGFTFSSYWMTWVRQAPGKGLEWVANIKQEGSEKYYVDSVKGRFTISRDNAKNSLFLQMNSLRAEDTAVYYCARTLIFDYWGQGTLVTVSS
VL: DIVMTQSPLSLPVTPGEPASISCRSSQSLLHSTGYQSLEWYLQKPGQSPQLLIYLGSNRASGVPDRFSGSGSGTDFTLKISRVEAEDVGIYYCMQTLQTPITFGQGTRLEIKR
notes: PTM-removal variant of PR004290
Regarding B2, the “CHO-CRE-hCRHR1 0.5 nM CRH IC50” value in [1] worked out at 10.3 nM. Moreover, in assay [3], the equilibrium dissociation constant (Kd) is 0.12 nM and 0.0409 nM. Also, the EC50 was 0.028 nM in assay [4], 0.054 nM in [9], 9.37 nM in [5] and 0.076 nM in assay [10]. In addition, the binding result in assay [7] and in assay [8] was “no binding (tested: 100 nM)” each time.

B3: PR302341-48 (antibody, human IgG1, kappa, V domains shown)
VH: QVQLVQSGAEVKKPGASVKVSCKASGYTFTDYFMKWVRQAPGQGLEWMGVINPNQGDIFYNQKFKGRVTMTVDKSTSTAYMELSSLRSEDTAVYYCARGTDRALFAYWGQGTLVTVSS
VL: DVVMTQTPLSSPVTLGQPASISCRSGQSIVHSDANTYLEWYQQRPGQPPRLLIYKVSNRFSGVPDRFSGSGAGTDFTLKISRVEAEDLGVYYCFQGSHIPWTFGGGTKVEIKR
notes: Humanized, PTM-removed variant of PR302341
As for B3, the “CHO-CRE-hCRHR1 0.5 nM CRH IC50” value in assay [1] was 0.507 nM. Moreover, in [2], the “CHO-CRE-hCRHR1 1 nM hUCH1 IC50” value came to 30 nM and the “hUCN1 IC50/ CRH IC50” value was determined as 59 fold. In assay [3], the Kd was < 0.001 nM, the koff was < 1e-07 s⁻¹ and the kon was 1.04e+06 M⁻¹ s⁻¹. The EC50 in assay [4] was determined as 0.045 nM. In assay [9], the EC50 turned out to be 0.028 nM. In assay [5], this molecule displayed an EC50 of 0.017 nM. The EC50 in assay [6] is 0.023 nM. In addition, the binding result in assay [11] is “no binding (tested: 100 nM)”.

B4: PR302341-60 (antibody, human IgG1, kappa, V domains shown)
VH: QVQLVQSGAEVKKPGASVKVSCKASGYTFTDYFMKWVRQAPGQRLEWMGVINPNQGDIFYNQKFKGRVTITRDTSASTAYMELSSLRSEDTAVYYCARGTDRALFAYWGQGTLVTVSS
VL: DVVMTQSPLSLPVTLGQPASISCRSGQSIVHSDANTYLEWYQQRPGQSPRLLIYKVSNRFSGVPDRFSGSGSGTDFTLKISRVEAEDLGVYYCFQGSHIPWTFGGGTKVEIKR
notes: as for B3
Take B4: in assay [1], the “CHO-CRE-hCRHR1 0.5 nM CRH IC50” value turned out to be 0.878 nM. In assay [2], the “CHO-CRE-hCRHR1 1 nM hUCH1 IC50” value turned out to be 71 nM and the “hUCN1 IC50/ CRH IC50” value was 81 fold. In [3], this molecule registered a Kd of 0.0142 nM, a koff of 3.35e-05 s⁻¹ and a kon of 2.49e+06 M⁻¹ s⁻¹. The EC50 in [4] was determined as 0.043 nM. The same molecule had a concentration for a half-maximal effect (EC50) in assay [9] of 0.036 nM. The molecule also yielded an EC50 in assay [5] of 0.026 nM. In [6], the EC50 turned out to be 0.036 nM. Further, in assay [11], the binding result was “no binding (tested: 100 nM)”.

B5: PR302309-11 (antibody, human IgG1, kappa, V domains shown)
VH: QIQLVQSGSELKKPGASVKVSCKASGYTFTNYGMNWVRQAPGQGLEWMGWINTYTGEPIYTDDFKGRFVFSLDTSVSTAYLQISSLKAEDTAVYYCSRSTMITTGGVFAYWGQGTLVTVSS
VL: DIVMTQTPLSSPVTLGQPASISCRSSQTIVHSDGNTYLEWLQQRPGQPPRLLIYKVSNRFSGVPDRFSGSGAGTDFTLKISRVEAEDVGVYYCFQGSHVPWTFGGGTKVEIKR
notes: Humanized variant of PR302309
As to B5, the “CHO-CRE-hCRHR1 0.5 nM CRH IC50” value in assay [1] amounted to 2.12 nM. The Kd in assay [3] turned out to be 0.0551 nM. In assay [3], this molecule yielded a koff of 8.48e-06 s⁻¹. For the same molecule, the kon in [3] is 154000 M⁻¹ s⁻¹. For the same molecule, the EC50 in assay [4] came out at 0.032 nM; in [9], 0.032 nM; in [5] it was 0.078 nM; in assay [6] it was 0.451 nM; in assay [10] it was 0.028 nM. For the same molecule, the binding result in assay [7] and in assay [8] was “no binding (tested: 100 nM)” throughout.

B6: PR302341-55 (antibody, human IgG1, kappa, V domains shown)
VH: QVQLVQSGAEVKKPGASVKVSCKASGYTFTDYFMKWVRQAPGQRLEWMGVINPNNADIFYNQKFKGRVTITRDTSASTAYMELSSLRSEDTAVYYCARGTDRALFAYWGQGTLVTVSS
VL: DVVMTQSPLSLPVTLGQPASISCRSGQSIVHSDGNTYLEWYQQRPGQSPRLLIYKVSNRFSGVPDRFSGSGSGTDFTLKISRVEAEDLGVYYCFQGSHIPWTFGGGTKVEIKR
notes: as for B3
As to B6, the “CHO-CRE-hCRHR1 0.5 nM CRH IC50” value in assay [1] is 0.105 nM. Further, in assay [2], the “CHO-CRE-hCRHR1 1 nM hUCH1 IC50” value was determined as 28 nM and the “hUCN1 IC50/ CRH IC50” value was determined as 267 fold. In [3], the Kd is < 0.001 nM, the koff was < 1e-07 s⁻¹ and the kon was 1.2e+06 M⁻¹ s⁻¹. The same molecule yielded an EC50 in [4] of 0.022 nM. In assay [9], this molecule had an EC50 of 0.019 nM. In addition, in assay [5], the EC50 turned out to be 0.013 nM. This molecule showed an EC50 in assay [6] of 0.018 nM. In addition, in [11], the binding result was “no binding (tested: 100 nM)”.
